The Human Domainome abundance scans (Beltran et al. 2025)
± gives the uncertainty stated by the source.

B1: Homeobox protein cut-like 1, residues 548 to 629; numbered along this chain, P39880 (parent)
chain: GEEMDTAEIARQVKEQLIKHNIGQRIFGHYVLGLSQGSVSEILARPKPWNKLTVRGKEPFHKMKQFLSDEQNILALRSIQGR

Variants of: B1
Test: abundance fitness (aPCA) (normalised: wild type 0, dead -1); higher = more abundant; growth selection in yeast, the domain comes from the species named
Details: Homo sapiens

Variant	abundance fitness
GEEMDTAEIARQVKEQLIKHNIGQRIFGHGVLGLSQGSVSEILARPKPWNKLTVRGKEPFHKMKQFLSDEQNILALRSIQGR	-0.552 ± 0.029
GEEMDTAEIARQVKEQLIKHNIGQRIFGHFVLGLSQGSVSEILARPKPWNKLTVRGKEPFHKMKQFLSDEQNILALRSIQGR	-0.126 ± 0.059
GEEMDTAEIARQVKEQLIKHNIGQRIFGHHVLGLSQGSVSEILARPKPWNKLTVRGKEPFHKMKQFLSDEQNILALRSIQGR	0.014 ± 0.052
GEEMDTAEIARQVKEQLIKHNIGQRIFGHCVLGLSQGSVSEILARPKPWNKLTVRGKEPFHKMKQFLSDEQNILALRSIQGR	-0.065 ± 0.046
GEEMDTAEIARQVKEQLIKHNIGQRIFGHKVLGLSQGSVSEILARPKPWNKLTVRGKEPFHKMKQFLSDEQNILALRSIQGR	-0.091 ± 0.034
GEEMDTAEIARQVKEQLIKHNIGQRIFGHEVLGLSQGSVSEILARPKPWNKLTVRGKEPFHKMKQFLSDEQNILALRSIQGR	-0.034 ± 0.029
GEEMDTAEIARQVKEQLIKHNIGQRIFGHIVLGLSQGSVSEILARPKPWNKLTVRGKEPFHKMKQFLSDEQNILALRSIQGR	-0.024 ± 0.065
GEEMDTAEIARQVKEQLIKHNIGQRIFGHLVLGLSQGSVSEILARPKPWNKLTVRGKEPFHKMKQFLSDEQNILALRSIQGR	-0.111 ± 0.031
GEEMDTAEIARQVKEQLIKHNIGQRIFGHDVLGLSQGSVSEILARPKPWNKLTVRGKEPFHKMKQFLSDEQNILALRSIQGR	-0.337 ± 0.055
GEEMDTAEIARQVKEQLIKHNIGQRIFGHAVLGLSQGSVSEILARPKPWNKLTVRGKEPFHKMKQFLSDEQNILALRSIQGR	-0.082 ± 0.029
GEEMDTAEIARQVKEQLIKHNIGQRIGGHYVLGLSQGSVSEILARPKPWNKLTVRGKEPFHKMKQFLSDEQNILALRSIQGR	-0.894 ± 0.041
GEEMDTAEIARQVKEQLIKHNIGQRIQGHYVLGLSQGSVSEILARPKPWNKLTVRGKEPFHKMKQFLSDEQNILALRSIQGR	-0.747 ± 0.073
GEEMDTAEIARQVKEQLIKHNIGQRIVGHYVLGLSQGSVSEILARPKPWNKLTVRGKEPFHKMKQFLSDEQNILALRSIQGR	-0.815 ± 0.049
GEEMDTAEIARQVKEQLIKHNIGQRISGHYVLGLSQGSVSEILARPKPWNKLTVRGKEPFHKMKQFLSDEQNILALRSIQGR	-0.906 ± 0.079
GEEMDTAEIARQVKEQLIKHNIGQRIAGHYVLGLSQGSVSEILARPKPWNKLTVRGKEPFHKMKQFLSDEQNILALRSIQGR	-1.01 ± 0.057
GEEMDTAEIARQVKEQLIKHNIGQRIPGHYVLGLSQGSVSEILARPKPWNKLTVRGKEPFHKMKQFLSDEQNILALRSIQGR	-0.861 ± 0.081
GEEMDTAEIARQVKEQLIKHNIGQRIMGHYVLGLSQGSVSEILARPKPWNKLTVRGKEPFHKMKQFLSDEQNILALRSIQGR	-0.857 ± 0.08

Variant	abundance fitness
GEEMDTAEIARQVKEQLIKHNIGQRILGHYVLGLSQGSVSEILARPKPWNKLTVRGKEPFHKMKQFLSDEQNILALRSIQGR	-0.47 ± 0.039
GEEMDTAEIARQVKEQLIKHNIGQRIYGHYVLGLSQGSVSEILARPKPWNKLTVRGKEPFHKMKQFLSDEQNILALRSIQGR	-1.15 ± 0.23
GEEMDTAEIARQVKEQLIKHNIGQRIEGHYVLGLSQGSVSEILARPKPWNKLTVRGKEPFHKMKQFLSDEQNILALRSIQGR	-0.906 ± 0.055
GEEMDTAEIARQVKEQLIKHNIGQRINGHYVLGLSQGSVSEILARPKPWNKLTVRGKEPFHKMKQFLSDEQNILALRSIQGR	-0.787 ± 0.13
GEEMDTAEIARQVKEQLIKHNIGQRIDGHYVLGLSQGSVSEILARPKPWNKLTVRGKEPFHKMKQFLSDEQNILALRSIQGR	-0.862 ± 0.1
GEEMDTAEIARQVKEQLIKHNIGQRIRGHYVLGLSQGSVSEILARPKPWNKLTVRGKEPFHKMKQFLSDEQNILALRSIQGR	-0.884 ± 0.043
GEEMDTAEIARQVKEQLIKHNIGQRIWGHYVLGLSQGSVSEILARPKPWNKLTVRGKEPFHKMKQFLSDEQNILALRSIQGR	-0.572 ± 0.044
GEEMDTAEIARQVKEQLIKHNIGQRIHGHYVLGLSQGSVSEILARPKPWNKLTVRGKEPFHKMKQFLSDEQNILALRSIQGR	-1.14 ± 0.29
GEEMDTAEIARQVKEQLIKHNIGQRIKGHYVLGLSQGSVSEILARPKPWNKLTVRGKEPFHKMKQFLSDEQNILALRSIQGR	-0.99 ± 0.092
GEEMDTAEIARQVKEQLIKHNIGQRIIGHYVLGLSQGSVSEILARPKPWNKLTVRGKEPFHKMKQFLSDEQNILALRSIQGR	-0.8 ± 0.17
GEEMDTAEIARQVKEQLIKHNIGQRITGHYVLGLSQGSVSEILARPKPWNKLTVRGKEPFHKMKQFLSDEQNILALRSIQGR	-0.914 ± 0.071
GEEMDTAEIARQVKEQLIKHNIGQRICGHYVLGLSQGSVSEILARPKPWNKLTVRGKEPFHKMKQFLSDEQNILALRSIQGR	-1.03 ± 0.23
GEEMDTAEIARQVKEQLIKHNIGQRIFGQYVLGLSQGSVSEILARPKPWNKLTVRGKEPFHKMKQFLSDEQNILALRSIQGR	0.038 ± 0.035
GEEMDTAEIARQVKEQLIKHNIGQRIFGDYVLGLSQGSVSEILARPKPWNKLTVRGKEPFHKMKQFLSDEQNILALRSIQGR	-0.036 ± 0.047
GEEMDTAEIARQVKEQLIKHNIGQRIFGYYVLGLSQGSVSEILARPKPWNKLTVRGKEPFHKMKQFLSDEQNILALRSIQGR	-0.125 ± 0.06
GEEMDTAEIARQVKEQLIKHNIGQRIFGMYVLGLSQGSVSEILARPKPWNKLTVRGKEPFHKMKQFLSDEQNILALRSIQGR	-0.052 ± 0.037
